# Laboratory results taken from PMC9157124 (Plant Physiology, 2022).
# Molecular target: N-terminal FLAG-tagged D1 (FLAG-D1) (Synechocystis sp. PCC 6803, UniProt P16033 1-344)
# Test: co-IP
binder,measurement,value
"Ycf48 assembly factor (natural protein, Synechocystis sp. PCC 6803 (endogenous), UniProt P73069 29-342, looked up) CSHVPDLAFNPWQEIALETDSTFADIAFTEDPNHGWLVGTKETIFETTDGGDTWEQKLIDLGEEKASFSAVSFSGNEGWITGKPSILLHTTDGGQTWARIPLSEKLPGAPYSIIALGPQTAEMITDLGAIYKTTNGGKNWKALVEGAVGVARTIQRSTDGRYVAVSARGNFYSTWAPGQTEWTPHNRNSSRRLQTMGYGKDGQLWLLARGGQLQFSTDPDAEEWSDVIAPQDKGSWGLLDLSFRTPEEVWVAGASGNLLMSQDGGQTWAKDTGVEDIPANLYRVVFLSPEKGFVLGQDGILLKYNPSTEVAMVP",stoichiometry N,~1
